Reference: PMC8727931, “The crystal structure of the FAM134B–GABARAP complex provides mechanistic insights into the selective binding of FAM134 to the GABARAP subfamily” (FEBS Open Bio, 2021)
No end group written: not given here.

What was measured:
Details in all cases: both partners purified
GABARAPL1 [1] = target: T1, GABARAPL1 (UniProt Q8R3R8 1-117); experiment: SEC-MALS; Superose 12 10/300GL column; 100 mM NaCl, 50 mM Tris/HCl pH 7.5, 1 mM DTT, 1 mM EDTA; proteins mixed at a 1:1 molar ratio
T1 construct: GABARAPL1; source: E. coli BL21 (DE3), purified

LC3B = LC3B (UniProt Q9CQV6 1-120); experiment: as above
[2] = target: T2, GABARAP (recombinant, for ITC, SEC and crystallization) (UniProt Q9DCD6 1-117); experiment: ITC; VP-ITC, 25 °C; 50 mM Tris/HCl pH 7.5, 100 mM NaCl, 1 mM DTT, 1 mM EDTA; GABARAP or LC3A (350 uM) injected into Trx-tagged FAM134B (35 uM) in the cell; one-site binding model
T2 construct: GABARAP; also called recombinant GABARAP protein; source: E. coli BL21 (DE3), purified
T2 sequence (Q9DCD6 whole entry): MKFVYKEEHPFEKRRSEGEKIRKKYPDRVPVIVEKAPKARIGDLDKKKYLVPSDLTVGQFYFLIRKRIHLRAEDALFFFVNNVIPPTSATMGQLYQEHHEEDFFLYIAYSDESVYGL

[3] = target: T3, LC3A (recombinant, for ITC) (UniProt Q91VR7 1-121); experiment: as above
T3 construct: LC3A; source: E. coli BL21 (DE3), purified

GABARAPL1 [4] = target: T1, GABARAPL1; experiment: SEC; FAM134A mixed with GABARAPL1 or LC3B at a 1:1 molar ratio; qualitative

B1: Trx-tagged FAM134B LIR (aa 451-476) (domain or fragment, UniProt Q9H6L5 451-476, looked up)
chain: EGDDFELLDQSELDQIESELGLTQDQ
modifications: also: Trx-tagged
notes: FAM134B (reticulophagy regulator 1), LIR and C-terminal extension, residues 451-476; 451-476 is what the results give for FAM134B LIR; Named 'Trx-tagged FAM134B' for ITC; I take the same construct for SEC-MALS; source: E. coli BL21 (DE3), purified (Ni2+-NTA, size-exclusion chromatography); not shown: Trx-His6, N-terminal, kept
Question: Does B1 bind (GABARAPL1 [1])?
Answer: Result: binds

Question: Does B1 bind (LC3B)?
Answer: Result: binds

Question: What about the Kd [2] of the same binder?
Answer: The Kd was 42 nM.

Question: What about the Kd [3] of the same binder?
Answer: Its Kd is ~376 nM.

B2: human FAM134A fragment (residues 488-513) (domain or fragment)
chain: TTEDFELLDQGELEQLNAELGLEPET
notes: FAM134A, human, residues 488-513; source: E. coli BL21 (DE3), purified
Question: Does B2 bind (GABARAPL1 [4])?
Answer: Result: binds
